B1: EHEE_rd4_0726 (parent)
chain: DIEITTNGEEDAKRVIKELQKRNLEYHIEVHGNQWVIKVR

Variants of: B1
Assay: folding stability dG (cDNA display proteolysis); higher = more stable
Conditions: PBS, room temperature

Point of comparison: DIEITTNGEEDAKRVIKELQKRNLEYHIEVHGNQWVIKVD, “folding stability dG” value 1.59 kcal/mol. Against it:
- DIEITTNGEEDAKRVIKELQKRNLEYHIEVHGNHWVIKVR — higher, 2.36 kcal/mol
- DIEITTNGEEDAKRVIKELQKRNLEYHIEVHGNIWVIKVR — higher, 2.87 kcal/mol
- DIEITTNGEEDAKRVIKELQKRNLEYHIEVHGNKWVIKVR — higher, 2.56 kcal/mol
- DIEITTNGEEDAKRVIKELQKRNLEYHIEVHGNLWVIKVR — higher, 2.65 kcal/mol
- DIEITTNGEEDAKRVIKELQKRNLEYHIEVHGNMWVIKVR — higher, 2.6 kcal/mol
- DIEITTNGEEDAKRVIKELQKRNLEYHIEVHGNNWVIKVR — higher, 2.21 kcal/mol
- DIEITTNGEEDAKRVIKELQKRNLEYHIEVHGNPWVIKVR — lower, -0.908 kcal/mol
- DIEITTNGEEDAKRVIKELQKRNLEYHIEVHGNRWVIKVR — higher, 2.59 kcal/mol
- DIEITTNGEEDAKRVIKELQKRNLEYHIEVHGNSWVIKVR — higher, 2.1 kcal/mol
- DIEITTNGEEDAKRVIKELQKRNLEYHIEVHGNTWVIKVR — higher, 2.58 kcal/mol
- DIEITTNGEEDAKRVIKELQKRNLEYHIEVHGNVWVIKVR — higher, 2.72 kcal/mol
- DIEITTNGEEDAKRVIKELQKRNLEYHIEVHGNWWVIKVR — higher, 2.32 kcal/mol
- DIEITTNGEEDAKRVIKELQKRNLEYHIEVHGNYWVIKVR — higher, 2.5 kcal/mol
- DIEITTNGEEDAKRVIKELQKRNLEYHIEVHGNQAVIKVR — lower, 0.294 kcal/mol
- DIEITTNGEEDAKRVIKELQKRNLEYHIEVHGNQCVIKVR — lower, 1.35 kcal/mol
- DIEITTNGEEDAKRVIKELQKRNLEYHIEVHGNQFVIKVR — higher, 1.79 kcal/mol
- DIEITTNGEEDAKRVIKELQKRNLEYHIEVHGNQGVIKVR — lower, -0.933 kcal/mol
- DIEITTNGEEDAKRVIKELQKRNLEYHIEVHGNQHVIKVR — lower, 0.787 kcal/mol
- DIEITTNGEEDAKRVIKELQKRNLEYHIEVHGNQIVIKVR — higher, 2.06 kcal/mol
- DIEITTNGEEDAKRVIKELQKRNLEYHIEVHGNQKVIKVR — lower, 0.49 kcal/mol
- DIEITTNGEEDAKRVIKELQKRNLEYHIEVHGNQLVIKVR — lower, 1.53 kcal/mol
- DIEITTNGEEDAKRVIKELQKRNLEYHIEVHGNQMVIKVR — lower, 1.44 kcal/mol
- DIEITTNGEEDAKRVIKELQKRNLEYHIEVHGNQNVIKVR — lower, -0.421 kcal/mol
- DIEITTNGEEDAKRVIKELQKRNLEYHIEVHGNQQVIKVR — lower, 0.512 kcal/mol
- DIEITTNGEEDAKRVIKELQKRNLEYHIEVHGNQRVIKVR — lower, 0.717 kcal/mol
- DIEITTNGEEDAKRVIKELQKRNLEYHIEVHGNQSVIKVR — lower, 0.359 kcal/mol
- DIEITTNGEEDAKRVIKELQKRNLEYHIEVHGNQTVIKVR — lower, 1.24 kcal/mol
- DIEITTNGEEDAKRVIKELQKRNLEYHIEVHGNQVVIKVR — higher, 1.67 kcal/mol
- DIEITTNGEEDAKRVIKELQKRNLEYHIEVHGNQYVIKVR — higher, 1.85 kcal/mol
- DIEITTNGEEDAKRVIKELQKRNLEYHIEVHGNQWAIKVR — lower, 0.418 kcal/mol
- DIEITTNGEEDAKRVIKELQKRNLEYHIEVHGNQWCIKVR — lower, 1.43 kcal/mol
- DIEITTNGEEDAKRVIKELQKRNLEYHIEVHGNQWEIKVR — lower, 0.046 kcal/mol
- DIEITTNGEEDAKRVIKELQKRNLEYHIEVHGNQWFIKVR — higher, 1.85 kcal/mol
- DIEITTNGEEDAKRVIKELQKRNLEYHIEVHGNQWHIKVR — lower, 1.47 kcal/mol
- DIEITTNGEEDAKRVIKELQKRNLEYHIEVHGNQWIIKVR — higher, 2.7 kcal/mol
- DIEITTNGEEDAKRVIKELQKRNLEYHIEVHGNQWKIKVR — higher, 1.67 kcal/mol
- DIEITTNGEEDAKRVIKELQKRNLEYHIEVHGNQWLIKVR — higher, 1.93 kcal/mol
- DIEITTNGEEDAKRVIKELQKRNLEYHIEVHGNQWMIKVR — lower, 1.37 kcal/mol
- DIEITTNGEEDAKRVIKELQKRNLEYHIEVHGNQWNIKVR — lower, 0.793 kcal/mol
- DIEITTNGEEDAKRVIKELQKRNLEYHIEVHGNQWQIKVR — lower, 0.978 kcal/mol
- DIEITTNGEEDAKRVIKELQKRNLEYHIEVHGNQWRIKVR — higher, 1.7 kcal/mol
- DIEITTNGEEDAKRVIKELQKRNLEYHIEVHGNQWSIKVR — lower, 0.912 kcal/mol
- DIEITTNGEEDAKRVIKELQKRNLEYHIEVHGNQWTIKVR — higher, 1.77 kcal/mol
- DIEITTNGEEDAKRVIKELQKRNLEYHIEVHGNQWWIKVR — lower, 1.16 kcal/mol
- DIEITTNGEEDAKRVIKELQKRNLEYHIEVHGNQWYIKVR — higher, 1.7 kcal/mol
- DIEITTNGEEDAKRVIKELQKRNLEYHIEVHGNQWVCKVR — lower, 1.49 kcal/mol
- DIEITTNGEEDAKRVIKELQKRNLEYHIEVHGNQWVFKVR — higher, 1.95 kcal/mol
- DIEITTNGEEDAKRVIKELQKRNLEYHIEVHGNQWVLKVR — lower, 1.21 kcal/mol
- DIEITTNGEEDAKRVIKELQKRNLEYHIEVHGNQWVMKVR — lower, 0.481 kcal/mol
- DIEITTNGEEDAKRVIKELQKRNLEYHIEVHGNQWVVKVR — lower, 1.5 kcal/mol
- DIEITTNGEEDAKRVIKELQKRNLEYHIEVHGNQWVIAVR — lower, 1.32 kcal/mol
- DIEITTNGEEDAKRVIKELQKRNLEYHIEVHGNQWVICVR — higher, 2.33 kcal/mol
- DIEITTNGEEDAKRVIKELQKRNLEYHIEVHGNQWVIDVR — lower, -0.365 kcal/mol
- DIEITTNGEEDAKRVIKELQKRNLEYHIEVHGNQWVIEVR — lower, 0.557 kcal/mol
- DIEITTNGEEDAKRVIKELQKRNLEYHIEVHGNQWVIFVR — higher, 2.63 kcal/mol
- DIEITTNGEEDAKRVIKELQKRNLEYHIEVHGNQWVIGVR — lower, 0.141 kcal/mol
- DIEITTNGEEDAKRVIKELQKRNLEYHIEVHGNQWVIHVR — higher, 2.39 kcal/mol
- DIEITTNGEEDAKRVIKELQKRNLEYHIEVHGNQWVIIVR — higher, 3.04 kcal/mol
- DIEITTNGEEDAKRVIKELQKRNLEYHIEVHGNQWVILVR — higher, 2.34 kcal/mol
- DIEITTNGEEDAKRVIKELQKRNLEYHIEVHGNQWVIMVR — higher, 2.16 kcal/mol
- DIEITTNGEEDAKRVIKELQKRNLEYHIEVHGNQWVINVR — lower, 1.29 kcal/mol
- DIEITTNGEEDAKRVIKELQKRNLEYHIEVHGNQWVIQVR — higher, 1.62 kcal/mol
- DIEITTNGEEDAKRVIKELQKRNLEYHIEVHGNQWVIRVR — higher, 2.58 kcal/mol
- DIEITTNGEEDAKRVIKELQKRNLEYHIEVHGNQWVISVR — higher, 1.94 kcal/mol
- DIEITTNGEEDAKRVIKELQKRNLEYHIEVHGNQWVITVR — higher, 2.77 kcal/mol
- DIEITTNGEEDAKRVIKELQKRNLEYHIEVHGNQWVIVVR — higher, 2.7 kcal/mol
- DIEITTNGEEDAKRVIKELQKRNLEYHIEVHGNQWVIWVR — higher, 2.19 kcal/mol
- DIEITTNGEEDAKRVIKELQKRNLEYHIEVHGNQWVIYVR — higher, 2.68 kcal/mol
- DIEITTNGEEDAKRVIKELQKRNLEYHIEVHGNQWVIKAR — lower, 1.06 kcal/mol
- DIEITTNGEEDAKRVIKELQKRNLEYHIEVHGNQWVIKFR — higher, 2.15 kcal/mol
- DIEITTNGEEDAKRVIKELQKRNLEYHIEVHGNQWVIKGR — lower, 0.015 kcal/mol
- DIEITTNGEEDAKRVIKELQKRNLEYHIEVHGNQWVIKHR — lower, 0.549 kcal/mol
- DIEITTNGEEDAKRVIKELQKRNLEYHIEVHGNQWVIKIR — higher, 2.58 kcal/mol
- DIEITTNGEEDAKRVIKELQKRNLEYHIEVHGNQWVIKKR — lower, -0.993 kcal/mol
- DIEITTNGEEDAKRVIKELQKRNLEYHIEVHGNQWVIKLR — higher, 1.98 kcal/mol
- DIEITTNGEEDAKRVIKELQKRNLEYHIEVHGNQWVIKMR — lower, 1.44 kcal/mol
- DIEITTNGEEDAKRVIKELQKRNLEYHIEVHGNQWVIKPR — lower, -0.609 kcal/mol
- DIEITTNGEEDAKRVIKELQKRNLEYHIEVHGNQWVIKQR — lower, -0.263 kcal/mol
- DIEITTNGEEDAKRVIKELQKRNLEYHIEVHGNQWVIKRR — lower, -0.082 kcal/mol
- DIEITTNGEEDAKRVIKELQKRNLEYHIEVHGNQWVIKSR — lower, 0.617 kcal/mol
- DIEITTNGEEDAKRVIKELQKRNLEYHIEVHGNQWVIKTR — lower, 1.12 kcal/mol
- DIEITTNGEEDAKRVIKELQKRNLEYHIEVHGNQWVIKWR — higher, 1.83 kcal/mol
- DIEITTNGEEDAKRVIKELQKRNLEYHIEVHGNQWVIKYR — higher, 2.08 kcal/mol
- DIEITTNGEEDAKRVIKELQKRNLEYHIEVHGNQWVIKVA — higher, 2.12 kcal/mol
- DIEITTNGEEDAKRVIKELQKRNLEYHIEVHGNQWVIKVC — higher, 2.97 kcal/mol
- DIEITTNGEEDAKRVIKELQKRNLEYHIEVHGNQWVIKVE — higher, 1.73 kcal/mol
- DIEITTNGEEDAKRVIKELQKRNLEYHIEVHGNQWVIKVF — higher, 2.73 kcal/mol
- DIEITTNGEEDAKRVIKELQKRNLEYHIEVHGNQWVIKVG — higher, 1.81 kcal/mol
- DIEITTNGEEDAKRVIKELQKRNLEYHIEVHGNQWVIKVH — higher, 2.74 kcal/mol
- DIEITTNGEEDAKRVIKELQKRNLEYHIEVHGNQWVIKVI — higher, 2.84 kcal/mol
- DIEITTNGEEDAKRVIKELQKRNLEYHIEVHGNQWVIKVK — higher, 2.63 kcal/mol
- DIEITTNGEEDAKRVIKELQKRNLEYHIEVHGNQWVIKVL — higher, 2.7 kcal/mol
- DIEITTNGEEDAKRVIKELQKRNLEYHIEVHGNQWVIKVM — higher, 2.58 kcal/mol
- DIEITTNGEEDAKRVIKELQKRNLEYHIEVHGNQWVIKVN — higher, 1.97 kcal/mol
- DIEITTNGEEDAKRVIKELQKRNLEYHIEVHGNQWVIKVP — higher, 1.89 kcal/mol
- DIEITTNGEEDAKRVIKELQKRNLEYHIEVHGNQWVIKVQ — higher, 2.11 kcal/mol
- DIEITTNGEEDAKRVIKELQKRNLEYHIEVHGNQWVIKVS — higher, 2.18 kcal/mol
- DIEITTNGEEDAKRVIKELQKRNLEYHIEVHGNQWVIKVT — higher, 2.48 kcal/mol
- DIEITTNGEEDAKRVIKELQKRNLEYHIEVHGNQWVIKVV — higher, 2.65 kcal/mol
- DIEITTNGEEDAKRVIKELQKRNLEYHIEVHGNQWVIKVW — higher, 2.3 kcal/mol
- DIEITTNGEEDAKRVIKELQKRNLEYHIEVHGNQWVIKVY — higher, 2.57 kcal/mol
